Reference: patent publication US20220204580A1 (AstraZeneca / MedImmune, published 2022)
Numbered stars: 1 amine (or outer) side, 2 acyl side, 3 side chain; on linkers, the order of the positions; unused ones are H or OH. Bridge positions count the residues as written; N and C are the ends. Square brackets hold non-standard residues; d marks the D form. Side chains are listed from the residue outwards. Ends that are not written are not given here. * marks the point of attachment. C18 diacid = O=C(O)CCCCCCCCCCCCCCCCC(=O)*; γGlu = O=C(O)[C@H](CCC(=O)[*:2])N[*:1]; αMeF = C[C@](N)(Cc1ccccc1)C(=O)O; αMeS = C[C@](N)(CO)C(=O)O; Dab = NCC[C@H](N)C(=O)O; Aib = CC(C)(N)C(=O)O

Tests used:
[1] = molecular target: T1, human amylin receptor (calcitonin receptor co-expressed with receptor activity modifying protein, RAMP3) (human, UniProt P30988 25-474; O60896 24-148); experiment: cell-based or functional assay
T1 sequence (looked up) 1: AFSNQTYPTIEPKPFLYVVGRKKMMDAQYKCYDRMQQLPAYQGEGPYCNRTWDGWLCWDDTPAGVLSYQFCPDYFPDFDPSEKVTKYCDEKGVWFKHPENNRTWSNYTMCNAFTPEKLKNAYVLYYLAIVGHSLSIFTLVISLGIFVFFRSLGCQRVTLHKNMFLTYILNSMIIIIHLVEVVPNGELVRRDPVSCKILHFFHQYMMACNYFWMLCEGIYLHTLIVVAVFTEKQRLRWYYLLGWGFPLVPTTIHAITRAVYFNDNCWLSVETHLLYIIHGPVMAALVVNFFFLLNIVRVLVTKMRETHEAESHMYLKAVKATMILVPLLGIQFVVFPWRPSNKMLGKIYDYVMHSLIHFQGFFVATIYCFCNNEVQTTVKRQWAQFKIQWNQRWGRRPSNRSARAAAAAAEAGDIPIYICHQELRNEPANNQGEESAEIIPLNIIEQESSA
T1 sequence (looked up) 2: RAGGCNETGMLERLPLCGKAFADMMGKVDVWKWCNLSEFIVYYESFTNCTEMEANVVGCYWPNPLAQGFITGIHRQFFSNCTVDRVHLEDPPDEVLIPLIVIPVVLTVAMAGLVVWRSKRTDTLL

[2] = molecular target: T2, human calcitonin receptor (human, UniProt P30988 25-474); experiment: cell-based or functional assay
T2 sequence (looked up): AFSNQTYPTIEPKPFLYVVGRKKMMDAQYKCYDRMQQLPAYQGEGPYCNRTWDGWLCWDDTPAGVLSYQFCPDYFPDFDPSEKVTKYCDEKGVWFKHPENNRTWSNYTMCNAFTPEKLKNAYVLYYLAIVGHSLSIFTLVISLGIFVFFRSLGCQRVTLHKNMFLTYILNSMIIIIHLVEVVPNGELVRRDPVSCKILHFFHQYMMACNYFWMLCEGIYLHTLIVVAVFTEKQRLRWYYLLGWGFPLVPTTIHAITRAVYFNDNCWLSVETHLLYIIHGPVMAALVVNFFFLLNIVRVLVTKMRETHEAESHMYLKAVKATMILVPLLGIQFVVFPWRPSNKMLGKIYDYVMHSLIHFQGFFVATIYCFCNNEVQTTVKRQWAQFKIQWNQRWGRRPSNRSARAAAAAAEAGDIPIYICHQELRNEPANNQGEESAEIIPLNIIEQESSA

B1: Peptide 26 (SEQ ID NO: 26) (peptide)
peptide: K([γGlu-γGlu-C18 diacid])CNTATCATQRLANFL[Aib]HSSNN[αMeF]GPILPPTNVGSNTY-NH2
modifications: disulfide 2-7; N-terminus assumed
SMILES: CC[C@H](C)[C@H](NC(=O)[C@@H]1CCCN1C(=O)CNC(=O)[C@](C)(Cc1ccccc1)NC(=O)[C@H](CC(N)=O)NC(=O)[C@H](CC(N)=O)NC(=O)[C@H](CO)NC(=O)[C@H](CO)NC(=O)[C@H](Cc1c[nH]cn1)NC(=O)C(C)(C)NC(=O)[C@H](CC(C)C)NC(=O)[C@H](Cc1ccccc1)NC(=O)[C@H](CC(N)=O)NC(=O)[C@H](C)NC(=O)[C@H](CC(C)C)NC(=O)[C@H](CCCNC(=N)N)NC(=O)[C@H](CCC(N)=O)NC(=O)[C@@H](NC(=O)[C@H](C)NC(=O)[C@@H]1CSSC[C@H](NC(=O)[C@@H](N)CCCCNC(=O)CC[C@H](NC(=O)CC[C@H](NC(=O)CCCCCCCCCCCCCCCCC(=O)O)C(=O)O)C(=O)O)C(=O)N[C@@H](CC(N)=O)C(=O)N[C@@H]([C@@H](C)O)C(=O)N[C@@H](C)C(=O)N[C@@H]([C@@H](C)O)C(=O)N1)[C@@H](C)O)C(=O)N[C@@H](CC(C)C)C(=O)N1CCC[C@H]1C(=O)N1CCC[C@H]1C(=O)N[C@H](C(=O)N[C@@H](CC(N)=O)C(=O)N[C@H](C(=O)NCC(=O)N[C@@H](CO)C(=O)N[C@@H](CC(N)=O)C(=O)N[C@H](C(=O)N[C@@H](Cc1ccc(O)cc1)C(N)=O)[C@@H](C)O)C(C)C)[C@@H](C)O
- EC50 (cAMP production) [1]: 409 pM
- Ratio (EC50 hCTR / EC50 hAMYR3) [1]: 7
- EC50 (cAMP production) [2]: 2800 pM

B2: Peptide 28 (SEQ ID NO: 28) (peptide)
peptide: K([γGlu-C18 diacid])KCNTATCATQRLANFLVHSS[Dab]NFGPILPPTEVGSNTY-NH2
modifications: disulfide 3-8; N-terminus assumed
SMILES: CC[C@H](C)[C@H](NC(=O)[C@@H]1CCCN1C(=O)CNC(=O)[C@H](Cc1ccccc1)NC(=O)[C@H](CC(N)=O)NC(=O)[C@H](CCN)NC(=O)[C@H](CO)NC(=O)[C@H](CO)NC(=O)[C@H](Cc1c[nH]cn1)NC(=O)[C@@H](NC(=O)[C@H](CC(C)C)NC(=O)[C@H](Cc1ccccc1)NC(=O)[C@H](CC(N)=O)NC(=O)[C@H](C)NC(=O)[C@H](CC(C)C)NC(=O)[C@H](CCCNC(=N)N)NC(=O)[C@H](CCC(N)=O)NC(=O)[C@@H](NC(=O)[C@H](C)NC(=O)[C@@H]1CSSC[C@H](NC(=O)[C@H](CCCCN)NC(=O)[C@@H](N)CCCCNC(=O)CC[C@H](NC(=O)CCCCCCCCCCCCCCCCC(=O)O)C(=O)O)C(=O)N[C@@H](CC(N)=O)C(=O)N[C@@H]([C@@H](C)O)C(=O)N[C@@H](C)C(=O)N[C@@H]([C@@H](C)O)C(=O)N1)[C@@H](C)O)C(C)C)C(=O)N[C@@H](CC(C)C)C(=O)N1CCC[C@H]1C(=O)N1CCC[C@H]1C(=O)N[C@H](C(=O)N[C@@H](CCC(=O)O)C(=O)N[C@H](C(=O)NCC(=O)N[C@@H](CO)C(=O)N[C@@H](CC(N)=O)C(=O)N[C@H](C(=O)N[C@@H](Cc1ccc(O)cc1)C(N)=O)[C@@H](C)O)C(C)C)[C@@H](C)O
- EC50 (cAMP production) [1]: 390 pM
- Ratio (EC50 hCTR / EC50 hAMYR3) [1]: 23
- EC50 (cAMP production) [2]: 9140 pM

B3: Peptide 23 (SEQ ID NO: 23) (peptide)
peptide: K([γGlu-γGlu-C18 diacid])CNTATCATQRLANFLVHSSNN[αMeF]GPILPPTEVGSNTY-NH2
modifications: disulfide 2-7; N-terminus assumed
SMILES: CC[C@H](C)[C@H](NC(=O)[C@@H]1CCCN1C(=O)CNC(=O)[C@](C)(Cc1ccccc1)NC(=O)[C@H](CC(N)=O)NC(=O)[C@H](CC(N)=O)NC(=O)[C@H](CO)NC(=O)[C@H](CO)NC(=O)[C@H](Cc1c[nH]cn1)NC(=O)[C@@H](NC(=O)[C@H](CC(C)C)NC(=O)[C@H](Cc1ccccc1)NC(=O)[C@H](CC(N)=O)NC(=O)[C@H](C)NC(=O)[C@H](CC(C)C)NC(=O)[C@H](CCCNC(=N)N)NC(=O)[C@H](CCC(N)=O)NC(=O)[C@@H](NC(=O)[C@H](C)NC(=O)[C@@H]1CSSC[C@H](NC(=O)[C@@H](N)CCCCNC(=O)CC[C@H](NC(=O)CC[C@H](NC(=O)CCCCCCCCCCCCCCCCC(=O)O)C(=O)O)C(=O)O)C(=O)N[C@@H](CC(N)=O)C(=O)N[C@@H]([C@@H](C)O)C(=O)N[C@@H](C)C(=O)N[C@@H]([C@@H](C)O)C(=O)N1)[C@@H](C)O)C(C)C)C(=O)N[C@@H](CC(C)C)C(=O)N1CCC[C@H]1C(=O)N1CCC[C@H]1C(=O)N[C@H](C(=O)N[C@@H](CCC(=O)O)C(=O)N[C@H](C(=O)NCC(=O)N[C@@H](CO)C(=O)N[C@@H](CC(N)=O)C(=O)N[C@H](C(=O)N[C@@H](Cc1ccc(O)cc1)C(N)=O)[C@@H](C)O)C(C)C)[C@@H](C)O
- EC50 (cAMP production) [1]: 238 pM
- Ratio (EC50 hCTR / EC50 hAMYR3) [1]: 2
- EC50 (cAMP production) [2]: 589 pM

B4: Peptide 22 (SEQ ID NO: 22) (peptide)
peptide: K([γGlu-γGlu-C18 diacid])CNTATCATQRLANFLVHS[αMeS]NNFGPILPPTNVGSNTY-NH2
modifications: disulfide 2-7
- EC50 (cAMP production) [1]: 162 pM
- Ratio (EC50 hCTR / EC50 hAMYR3) [1]: 40
- EC50 (cAMP production) [2]: 6540 pM

B5: Peptide 27 (SEQ ID NO: 27) (peptide)
peptide: K([γGlu-γGlu-C18 diacid])CNIATCATQRLANFLVHSS[Dab]NFGPILPPTNVGSRTY-NH2
modifications: disulfide 2-7; N-terminus assumed
SMILES: CC[C@H](C)[C@@H]1NC(=O)[C@H](CC(N)=O)NC(=O)[C@@H](NC(=O)[C@@H](N)CCCCNC(=O)CC[C@H](NC(=O)CC[C@H](NC(=O)CCCCCCCCCCCCCCCCC(=O)O)C(=O)O)C(=O)O)CSSC[C@@H](C(=O)N[C@@H](C)C(=O)N[C@H](C(=O)N[C@@H](CCC(N)=O)C(=O)N[C@@H](CCCNC(=N)N)C(=O)N[C@@H](CC(C)C)C(=O)N[C@@H](C)C(=O)N[C@@H](CC(N)=O)C(=O)N[C@@H](Cc2ccccc2)C(=O)N[C@@H](CC(C)C)C(=O)N[C@H](C(=O)N[C@@H](Cc2c[nH]cn2)C(=O)N[C@@H](CO)C(=O)N[C@@H](CO)C(=O)N[C@@H](CCN)C(=O)N[C@@H](CC(N)=O)C(=O)N[C@@H](Cc2ccccc2)C(=O)NCC(=O)N2CCC[C@H]2C(=O)N[C@H](C(=O)N[C@@H](CC(C)C)C(=O)N2CCC[C@H]2C(=O)N2CCC[C@H]2C(=O)N[C@H](C(=O)N[C@@H](CC(N)=O)C(=O)N[C@H](C(=O)NCC(=O)N[C@@H](CO)C(=O)N[C@@H](CCCNC(=N)N)C(=O)N[C@H](C(=O)N[C@@H](Cc2ccc(O)cc2)C(N)=O)[C@@H](C)O)C(C)C)[C@@H](C)O)[C@@H](C)CC)C(C)C)[C@@H](C)O)NC(=O)[C@H]([C@@H](C)O)NC(=O)[C@H](C)NC1=O
- EC50 (cAMP production) [1]: 134 pM
- Ratio (EC50 hCTR / EC50 hAMYR3) [1]: 5
- EC50 (cAMP production) [2]: 731 pM

B6: Peptide 25 (SEQ ID NO: 25) (peptide)
peptide: K([γGlu-C18 diacid])CNTATCATQRLANFLVHSSNN[αMeF]GPILPPTRVGSNTY-NH2
modifications: disulfide 2-7; N-terminus assumed
SMILES: CC[C@H](C)[C@H](NC(=O)[C@@H]1CCCN1C(=O)CNC(=O)[C@](C)(Cc1ccccc1)NC(=O)[C@H](CC(N)=O)NC(=O)[C@H](CC(N)=O)NC(=O)[C@H](CO)NC(=O)[C@H](CO)NC(=O)[C@H](Cc1c[nH]cn1)NC(=O)[C@@H](NC(=O)[C@H](CC(C)C)NC(=O)[C@H](Cc1ccccc1)NC(=O)[C@H](CC(N)=O)NC(=O)[C@H](C)NC(=O)[C@H](CC(C)C)NC(=O)[C@H](CCCNC(=N)N)NC(=O)[C@H](CCC(N)=O)NC(=O)[C@@H](NC(=O)[C@H](C)NC(=O)[C@@H]1CSSC[C@H](NC(=O)[C@@H](N)CCCCNC(=O)CC[C@H](NC(=O)CCCCCCCCCCCCCCCCC(=O)O)C(=O)O)C(=O)N[C@@H](CC(N)=O)C(=O)N[C@@H]([C@@H](C)O)C(=O)N[C@@H](C)C(=O)N[C@@H]([C@@H](C)O)C(=O)N1)[C@@H](C)O)C(C)C)C(=O)N[C@@H](CC(C)C)C(=O)N1CCC[C@H]1C(=O)N1CCC[C@H]1C(=O)N[C@H](C(=O)N[C@@H](CCCNC(=N)N)C(=O)N[C@H](C(=O)NCC(=O)N[C@@H](CO)C(=O)N[C@@H](CC(N)=O)C(=O)N[C@H](C(=O)N[C@@H](Cc1ccc(O)cc1)C(N)=O)[C@@H](C)O)C(C)C)[C@@H](C)O
- EC50 (cAMP production) [1]: 105 pM
- Ratio (EC50 hCTR / EC50 hAMYR3) [1]: 12
- EC50 (cAMP production) [2]: 1250 pM

B7: Peptide 4 (SEQ ID NO: 4) (peptide)
peptide: {C18 diacid}-[γGlu][γGlu]GGGKCNTATCATQRLANFLVHSSNNFGPILPPTNVGSNTY-NH2
modifications: disulfide 7-12
- EC50 (cAMP production) [1]: 248 pM
- Ratio (EC50 hCTR / EC50 hAMYR3) [1]: 30
- EC50 (cAMP production) [2]: 7530 pM
